Publication PMC6650482, “Tyrosine 51 residue of the syndecan-2 extracellular domain is involved in the interaction with and activation of pro-matrix metalloproteinase-7” (Scientific Reports, 2019)
Where a chain is given by its changes, count along the chain named. Numbers in names are those of the source. Entries after “also recorded” stand apart in the source; their conditions may differ. Blank lines part the entries; values can stand above or below the molecule they belong to.

Assays:
GST-SDC-2 = test: In vitro binding of MMP-7 pro-domain fragments to GST-SDC2; parameters: species or system human; conditions: GST-SDC-2, glutathione-agarose beads, anti-His immunoblot
Description: (§1) Figure 4 The α2–3 helix of the MMP-7 pro-domain is involved in its interaction with the syndecan-2 extracellular domain. (A) Structure of the MMP-7 pro-domain (PDB; 2MZE) and schematic diagram of the MMP-7 pro-domain (PD) and its deletion mutants. The indicated MMP-7 pro-domain mutants were purified with Ni-NTA agarose beads, separated by SDS-PAGE. Purified MMP-7 pro-domain mutants were incubated with GST-SDC-2. Materials bound to glutathione-agarose beads were immunoblotted with an anti-His tag antibody and the membranes were stripped and re-probed with an anti-GST antibody. Image is of a single membrane cropped to remove intervening lanes. (B) Purified GST-SDC2 mutants were incubated with His-tagged α2–3 helix of the MMP-7 pro-domain. Materials bound to glutathione-agarose beads were immunoblotted with an anti-His tag antibody (top) and the membranes were then stripped and re-probed with an anti-GST antibody (bottom). (C) The secondary structure of the α2–3 helix of the MMP-7 pro-domain was analyzed using CD in the presence of different concentrations of TFE (top). Quantitative estimations of the secondary-structure content were made with the CDPro software package, which includes the programs CDSSTR, CONTIN, and SELCON3. […] Smaller values of NRMSD indicate closer correspondence between calculated structures and the experimental data.

[1] = Circular dichroism secondary structure; format: physicochemical
Description: Figure 2 The pro-domain of MMP-7 is involved in its interaction with the syndecan-2 extracellular domain. (A) Schematic representations of the pro-domain of MMP-7 (PD) and the deletion mutants lacking the pro-domain, N-terminus (ΔN), C-terminus (ΔC) and both N- and C-terminus (ΔNC) (top). His-tagged MMP-7 pro-domain was purified with Ni-NTA agarose beads, separated by SDS-PAGE and stained with Coomassie Blue (bottom). (B) Purified GST-S2E, S2E-C and S2E-NII were incubated with His-tagged PD, or ΔN, ΔC or ΔNC MMP-7 pro-domain. Materials bound to glutathione-agarose beads were immunoblotted with an anti-His tag antibody (top). The membranes were then stripped and re-probed with an anti-GST antibody (bottom). […] Absorbance was measured at 450 nm. […]
Figure 4 The α2–3 helix of the MMP-7 pro-domain is involved in its interaction with the syndecan-2 extracellular domain. […] (C) The secondary structure of the α2–3 helix of the MMP-7 pro-domain was analyzed using CD in the presence of different concentrations of TFE (top). Quantitative estimations of the secondary-structure content were made with the CDPro software package, which includes the programs CDSSTR, CONTIN, and SELCON3. […] Smaller values of NRMSD indicate closer correspondence between calculated structures and the experimental data. […]

[2] = system: N-terminus of the extracellular domain of syndecan-2; test: In vitro binding of MMP-7 α2–3 helix with N-terminus of the syndecan-2 extracellular domain; parameters: species or system human; conditions: His-tagged α2–3, GST-SDC2 mutants, anti-His immunoblot
Description: as §1

[3] = system: His-tagged α2–3 helix of the MMP-7 pro-domain; test: In vitro binding of GST-SDC2 proteins to His-tagged α2–3; parameters: species or system human; conditions: 2 h at 4 °C, glutathione-agarose beads, immunoblot
Description: as §1, with “data. […]” for “data.”

[4] = molecular target: T1, His-tagged pro-domain of MMP-7 (His-PD) (Homo sapiens, UniProt P09237); test: In vitro binding (GST pulldown / anti-His immunoblot) with His-PD; conditions: GST-tagged proteins
T1 construct: His tag; pET32a(+) vector-encoded fusion part (thioredoxin/S-tag by own knowledge of the vector); made in house
T1 sequence (P09237 18-94 limits assumed): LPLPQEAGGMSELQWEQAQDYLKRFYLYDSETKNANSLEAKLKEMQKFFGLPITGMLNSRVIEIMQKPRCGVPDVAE
Excerpt: Figure 1 The N-terminus of syndecan-2 interacts with the pro-domain of MMP-7. (A) Schematic representation of the syndecan-2 core protein (SDC2) and MMP-7. The signal peptide (SP), the extracellular domain (EC), the transmembrane domain (TM), and the cytoplasmic domain (CT) of syndecan-2 are noted, and the various deletion mutants are indicated. A peptide corresponding to residues 41–60 of the syndecan-2 extracellular domain (S2-P) was synthesized. Syndecan-2 is labeled with amino acid numbers to show the location of each deletion (left). Schematic representation of MMP-7. The pre-domain (Pre), pro-domain (PD), and catalytic domain are shown (right top). Purified GST-SDC2 mutants and the His-tagged pro-domain of MMP-7 were separated by 15% SDS-PAGE and stained with Coomassie Blue (right bottom). (B) Purified GST or GST-SDC2 mutants were incubated with His-tagged pro-domain of MMP-7 (His-PD). Bound materials were subjected to immunoblotting with an anti-His tag antibody (top). The membranes were then stripped and re-probed with an anti-GST antibody (bottom). (C) Purified GST-SDC2 was incubated with purified His-PD MMP-7 plus the indicated amounts of S2-P for 2 h at 4 °C. Bound materials were subjected to immunoblotting with an anti-His tag antibody (top). […] (D) Fluorescence spectroscopy indicates the binding affinity between His-PD and S2-P peptide. […]

[5] = system: His-tagged ΔNC MMP-7 pro-domain; test: In vitro binding of GST-SDC2 mutants to His-ΔNC; parameters: species or system human; conditions: 2 h at 4 °C, immunoblot
Description: Figure 2 The pro-domain of MMP-7 is involved in its interaction with the syndecan-2 extracellular domain. (A) Schematic representations of the pro-domain of MMP-7 (PD) and the deletion mutants lacking the pro-domain, N-terminus (ΔN), C-terminus (ΔC) and both N- and C-terminus (ΔNC) (top). His-tagged MMP-7 pro-domain was purified with Ni-NTA agarose beads, separated by SDS-PAGE and stained with Coomassie Blue (bottom). (B) Purified GST-S2E, S2E-C and S2E-NII were incubated with His-tagged PD, or ΔN, ΔC or ΔNC MMP-7 pro-domain. Materials bound to glutathione-agarose beads were immunoblotted with an anti-His tag antibody (top). The membranes were then stripped and re-probed with an anti-GST antibody (bottom). (C) ELISA plates coated with 600 ng of S2-P were incubated with the indicated His-tagged MMP-7 pro-domains (500 ng/well) for 2 h at 20 °C. The plates were washed, incubated with an anti-His tag antibody followed by IgG-HRP, and developed with TMB-ELISA. Absorbance was measured at 450 nm. Data are shown as mean ± S.D. (n = 3), *p < 0.05 versus blank. (D) Purified GST-SDC2 was mixed with His-tagged ΔNC for 2 h at 4 °C., separated by SDS-PAGE, and immunoblotted with anti-His or -GST antibodies. (E) The secondary structures of the MMP-7 pro-domain mutants of ΔN, ΔC and ΔNC were diluted to 50 μM in a buffer consisting of 10 mM HEPES and 20 mM NaCl, pH 8, and kept at 20 °C. […]

[6] = molecular target: His-tagged pro-domain of MMP-7 (His-PD) (human, UniProt P09237 18-267, Limits are the UniProt activation peptide. Paper's NMR numbering + 24 = precursor numbering (Gln7=Q31, Glu32=E56, Gly48=G72, Ser52=S76). Deletion-construct numbering implies a PD of about 79 residues,); test: other fluorescence titration; tryptophan quenching; 15 uM His-PD, S2-P titrated up to 1:200 molar ratio; PBS pH 7.4, 298 K; excitation 280 nm, intensity at 347 nm; conditions: both partners purified
Sequence of His-tagged pro-domain of MMP-7 (His-PD) (human, UniProt P09237 18-267, Limits are the UniProt activation peptide. Paper's NMR numbering + 24 = precursor numbering (Gln7=Q31, Glu32=E56, Gly48=G72, Ser52=S76). Deletion-construct numbering implies a PD of about 79 residues,) (P09237 18-267): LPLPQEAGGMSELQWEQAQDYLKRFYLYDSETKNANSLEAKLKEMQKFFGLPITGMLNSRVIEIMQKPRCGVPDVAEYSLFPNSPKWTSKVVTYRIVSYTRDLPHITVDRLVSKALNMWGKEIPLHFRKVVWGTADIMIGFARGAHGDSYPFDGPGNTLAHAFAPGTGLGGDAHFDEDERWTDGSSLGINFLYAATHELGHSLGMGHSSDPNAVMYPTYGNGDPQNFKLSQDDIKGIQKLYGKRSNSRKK

Molecule: α2–3: α2 helix-loop-α3 helix protein fragment of the MMP-7 pro-domain
interaction with syndecan-2 (pulldown, qualitative) (GST-SDC-2): interacted with syndecan-2, although to a slightly weaker degree than ΔNC; also recorded: interacted with recombinant syndecan-2 in vitro
helicity ([1]; CD, α-helical fraction from CDPro, without TFE): 75%
secondary structure by CD (qualitative) ([1]; far-UV CD, pro-domain mutants at 50 μM, 10 mM HEPES, 20 mM NaCl, pH 8, 20 °C (Fig. 2E), α2–3 in Fig. 4C): had a helical structure, as suggested by the presence of minima (negative peaks) at 208 and 222 nm
interaction with the N-terminus of the extracellular domain of syndecan-2 (pulldown, qualitative) [2]: interacted with the N-terminus of the extracellular domain of syndecan-2

interaction with α2–3 (pulldown, qualitative) [3]: interacted with the α2–3
B1: recombinant syndecan-2: Purified GST-SDC2 (protein, UniProt P34741 19-201, looked up)
Syndecan-2: ESRAELTSDKDMYLDNSSIEEASGVYPIDDDDYASASGSGADEDVESPELTTSRPLPKILLTSAAPKVETTTLNIQNKIPAQTKSPEETDKEKVHLSDSERKMDPAEEDTNVYTEKHSDSLFKRTEVLAAVIAGGVIGFLFAIFLILLLVYRMRKKDEGSYDLGERKPSSAAYQKAPTKEFYA
modifications: GST tag
notes: Purified GST-SDC2

interaction with His-PD (pulldown, qualitative) [4]: interacted with the pro-domain of MMP-7
B2: S2E: GST-tagged syndecan-2 extracellular domain (protein)
chain: ESRAELTSDKDMYLDNSSIEEASGVYPIDDDDYASASGSGADEDVESPELTTSRPLPKILLTSAAPKVETTTLNIQNKIPAQTKSPEETDKEKVHLSDSERKMDPAEEDTNVYTEKHSDSLFKRTE
modifications: left off: GST, end not stated, kept
notes: GST-tagged syndecan-2 extracellular domain

interaction with His-tagged ΔNC (pulldown, qualitative) [5]: did not affect its interaction
B3: D49A: substitution of Asp49 with Ala in the syndecan-2 extracellular domain (protein)
chain: B2 chain with D31A
modifications: left off: GST, end not stated, kept
notes: substitution of Asp49 with Ala in the syndecan-2 extracellular domain

interaction with His-tagged ΔNC (pulldown, qualitative) [5]: significantly reduced the interaction
interaction with α2–3 (pulldown, qualitative) [3]: failed to interact with the α2–3
B4: Y51A: substitution of Tyr51 with Ala in the syndecan-2 extracellular domain (protein)
chain: B2 chain with Y33A
modifications: left off: GST, end not stated, kept
notes: substitution of Tyr51 with Ala in the syndecan-2 extracellular domain

Kd [6]: 1586 ± 12 µM
B5: synthetic human syndecan-2 peptide (S2-P), extracellular domain residues 41-60 (peptide)
peptide: SGVYPIDDDDYASASGSGAD
notes: human syndecan-2 extracellular domain residues 41-60; also called S2-P peptide; source: synthetic peptide (Fmoc solid-phase, Anygen Inc.)
